In the DeepSol protein solubility set:

Test: soluble on expression in E. coli; label from the status in PepcDB or PDB records

| Sequence | soluble on expression in E. coli |
| --- | --- |
| MADVALRITETVARLQKELKCGICCSTYKDPILSTCFHIFCRSCINACFERKRKVQCPICRSVLDKRSCRDTYQITMAVQNYLKLSEAFKKDIENMNTFKSLPPEKMFMESQMPLDITIIPENDGKRCAPDFAIPFLPVRRKRPSRPQPPSAFAEEPAEPVEPPEPATKQPVELQSRVFPLEKLKKDVETSTETYKISREELKNVDIEEYINTLRENSTEIDEIDALFQLMPTMRQFLRNNINQLMEKFHVAPPKKSEKPANRRVSFASSQDLENIKIMTASESLETPPEPIQKLAQKPEVFKSTQNLIDLNLNTAVKKPVVVASDDDEVVEDSEGELQIDEDDLANVTCATSVRNIGKSLCAEYIREGRSISQKSTAYLYAIARKCVIVGRQWLVDCITTGLLLSEADYTITSCSSTIPVKIPPSIGSEMGWLRSRNDEHGKLFAGRRFMILRKFTMNPYFDYKQLIELVQQCGGEILSCYENLSPEKLYIIFSKHSKAIEESKNIENLYKCDVVTMEWVLDSISEYLILPTQPYKAVDSIGCLQD | not soluble |
| MADVLTELPGVGPSTADKLIEGGYLDFMKIATATIGELTDIEGISEKAAAKMIMAARDLCDLGFKSGVELLKQRQSVWRLSTGSTELDTVLAGGIESQSVTEFAGMFGSGKTQIMHQTCVNLQMREKIFADLEGVVEEELEAPKAVYIDTEGTFRPERVVQMAEGAGIDGQTVLDNTFVARAYNSDMQMLFAEKIEDLIKGGNNIKLVIIDSLTSTFRNEFTGRGKLAERQQKLGRHMATLNKLADLYNCIVLVTNQVAAKPDAYFGVAEQAIGGHVVGHAATFRFFLRKSKGDKRVAKLYDSPHLPDSEAVFRITEKGIQD | soluble |
| MADVPDQVDINVNVVEKPTGAIMFGAGYSDREGIILNGSIAQNNILGTGNFLSLQVNTGSVNKVISASFNNPYYTINGVSLGLEAFKRDINTRSLSSVGMFNTDTTGANIRFGIPVAENDIVSLGLGYEHTKIDLRDDSPQRFKDFVDQFGKTSNNLPITLSWARDRRNSAIWTTSGMTQRLFGEFGLPFGDLNYYKVSYEQRWFFPVTKMFTLMLNGEVGVGDGYSDKPLPFFKNFFAGGFNSVRGYNINTLGPRDSDDRVLGGSKRIVGNIEVLFPVPFMKEDKSVRLSAFADGGTIVNSFSGLGFDDFRYSAGLAATWISPMGPLKFSVAQPLNNQSGDKLQRFQFQFGQTFLEHHHHHH | soluble |
| MAEAGIAHTALPLEAIPEKSAGKGEGLTLIIYMLELALHAIPENLKKTVYSKVELMAPRSDGVLLFYGLCGNVLGKIEEDFRALDCRVSILKEENGEIVDDCIGAVLGGRGHYLEALKSCRGAGTFFLTPMWAVNWREMIRTAGLSRNPDDIEMSKFVFDYAGYKRVARVNTGLAYEKDFDARVKEFSTLFEFEVTDLEGTLQLVENCYAKTKASMLEACPHSQTLEHHHHHH | not soluble |
| MAEGEDVGWWRSWLQQSYQAVKEKSSEALEFMKRDLTEFTQVVQHDTACTIAATASVVKEKLATEGSSGATEKMKKGLSDFLGVISDTFAPSPDKTIDCDVITLMGTPSGTAEPYDGTKARLYSLQSDPATYCNEPDGPPELFDAWLSQFCLEEKKGGISELLVGSPSIRALYTKMVPAAVSHSEFWHRYFYKVHQLEQEQARRDALKQRAEQSISEEPGWEEEEEELMGISPISPKEAKVPVAKISTFPEGEPGPQSPCEENLVTSVEPPAEVTPSESSESISLVTQIANPATAPEARVLPKDLSQKLLEASLEEQGLAVDVGETGPSPPIHSKPLTPAGHTGGPEPRPPARVETLREEAPTDLRVFELNSDSGKSTPSNNGKKGSSTDISEDWEKDFDLDMTEEEVQMALSKVDASGELEDVEWEDWE | soluble |
| MAEHDFETISSETLHTGAIFALRRDQVRMPGGGIVTREVVEHFGAVAIVAMDDNGNIPMVYQYRHTYGRRLWELPAGLLDVAGEPPHLTAARELREEVGLQASTWQVLVDLDTAPGFSDESVRVYLATGLREVGRPEAHHEEADMTMGWYPIAEAARRVLRGEIVNSIAIAGVLAVHAVTTGFAQPRPLDTEWIDRPTAFAARRAER | soluble |
| MAEKKKDEKETKETENFILKLSAETVLFSNAKLGDEVTTTVLKMTNPTTDKCAFKVKCTSNDLFKIKTPVGYIKPDETIDIPLCHNPGKAIPENNKQYFAFYYIKTKEDGPARDAWKNHKPDGMKRIYISFKKGDEKGDEKKDEKKEEKKEEKKEEKKEDKKDDKKEAKKEEKKEEKKEEKKEEKKEEKKEEKKEEKNDENKEEKKEEKKDEKKEEKKVEEAKK | soluble |
| MAELACFVSFSLTEDKVVWYPINKKAVQTMLCAKVEKDQRSNYYDTILYGVAPPPEFRNRFKTNERYGLDYESDQYTELVNLLADTLNMVSMPTEKFQFDIVKTVVQVRHLENLLCRIKDVNDILNANVKLRVKAVMIACNLVNETETTPLTESNDIVYQDSYFTITKLDYSNHKLLPLMADEYKITINTKTDIPDRNQTAFAAYIRYNFNKFAAISHGKRHWRLVLHSQLMSHAERLDRKIKSDKKHGRQFSYDDGDMAFVHPGWKTCIGQLCGGTTFEVAKTSLYSIKPSKTVRTATNKIESDLISMVGN | soluble |
| MAELRETLERLASFRPQNYYVSTLYLRLMPEDRQDNKYLRVYKDLVKKKEKDLENLNLDKEVLDSIRGDIKNIQDFLSDPKNLYNCRGIAIFSCSKLGLFEYVKLPYVYRNRLMFSPDPLVREIAAIDEEFGRVAVLLLDRKHIRYFLMDITGIEEKLDFLEPMTTRAHRFHSGGALLKGAEGTFQYRMPARGAAPNVVQHGMGEWRFHMRLREEWHRILKLASDALFEEWKRIHFDKLIIGGFIEEGLREIENFLHPYVKEKLVGYIEITPEEATPHQVWEKALDLLWQKDREQEKEIIKELEELKGWGLAVNGTSEVLEMLAIGNVRTLILPEDFEKPGYLCPQSHLAFLKPECPLPEEKPIPVSDVVDEALEEALDQRATIEVIIDKELQKKVDGLAAFLRFKL | not soluble |
| MAELVPFAVPIESDKTLLVWELSSGPTAEALHHSLFTAFSQFGLLYSVRVFPNAAVAHPGFYAVIKFYSARAAHRAQKACDRKQLFQKSPVKVRLGTRHKAVQHQALALNSSKCQELANYYFGFNGCSKRIIKLQELSDLEERENEDSMVPLPKQSLKFFCALEVVLPSCDCRSPGIGLVEEPMDKVEEGPLSFLMKRKTAQKLAIQKALSDAFQKLLIVVLESGKIAVEYRPSEDIVGVRCEEELHGLIQVPCSPWKQYGQEEEGYLSDFSLEEEEFRLPELD | soluble |
| MAENAAPGLISELKLAVPWGHIAAKAWGSLQGPPVLCLHGWLDNASSFDRLIPLLPQDFYYVAMDFGGHGLSSHYSPGVPYYLQTFVSEIRRVVAALKWNRFSILGHSFGGVVGGMFFCTFPEMVDKLILLDTPLFLLESDEMENLLTYKRRAIEHVLQVEASQEPSHVFSLKQLLQRQRTALTSSAGSCVRIPSGSCRPMSC | soluble |
| MAENDGETIVPDEQCNLTASTPMKSSGLEQVESPKERKTSMVECDDEGNPSSGTPDESPKQLTPHSIPPRRRRSPRRPEVSASRLPLKVLNQIFQYLPLKDLRSAMLTCHSWNNALSMEDSDIWQYLLGKKLPEAAVSDPFLLAELGSAKKKLRAWYFAWNTSDISRNNYIRTNGFTVHRQPVAQSTDGVRGKRGISKGVHAFDITWDGPLGTVAVVGIATKHAALHCVGYVALLGSDDQSWGWNLVDNVLMHNGAQLGVYPKMNNPPKYEVGDKIRLIIDCDTHVAYFERNSEFLGIAFNHIPPLRLYPAVCAVYGNTEVTMVYVGSPQMG | not soluble |
| MAENFQLPYLSLQNEKVDMVFDLFNKTIRNGEKVTFAFSGGKDSTTLAILFYEWLKIRHDIECTITLLHNDTSSEIDPMENWARNFMTSYKTEIEDITEGRVKINIDIRTPKVIDTFYWRMLIRGYPAPSFNFRWCVHLLKEKPANLDSIEETMFTGLREAESSERRILMRKKYGNSCSASPGGCMAYYYSTEGKGNKVAPMRDWTDGDVWSFLTLYRNTGGINISPIFMLYPNPKVRYGCWHCTLASVQWGLQSLGGGLEYFEAVRILYRKFSDLPYLRIKKNTGYSKLGPLNAAGRALMLKSIALAEDLSNVKLYGLDINLLEGKSIRDILFNLDPKEATALIKKYDPNIPRFRYIPIDKIRNIQKYKELALRALIDVKRNCANDKAYILLDTKLENPLITLLNRIEDLLS | not soluble |
